Data published in US20080153737A1.

Columns and labels:
Assay in all cases: cell-based or functional assay
[1] = target: HIV envelope protein (env, gp160/gp120) of HIV strain IIIB on infected cells and virus (HIV strain IIIB) (UniProt P04578)
[2] = target: HIV env gp160 stably expressed on mouse melanoma B16 cells (gp160-B16) (HIV (strain not stated))
[3] = target: ErbB2 receptor on SKBR3 breast cancer cells (UniProt P04626)

Substance | reduction of HIV infection in primary CD4 T cells (p24 Ag ELISA of culture supernatants) [1] | reduction of HIV replication in infected primary CD4 cells (F105 + gag siRNA condition) [1] | uptake of FITC-siRNA by implanted tumor cells after intravenous injection (fluorescence microscopy) [2] | reduction of HIV replication in infected primary CD4 cells (F105-P + irrelevant GFP siRNA condition) [1] | uptake of FITC-CD4 siRNA by an HIV IIIB-infected Jurkat culture, 24 h (flow cytometry) [1] | uptake of FITC-labeled siRNA by HIV-infected Jurkat cells (flow cytometry) (% of infected cells) [1] | delivery of FITC-siRNA into cells (flow cytometry) [3]
F105 (antibody Fab fragment against HIV envelope, lacking protamine) | 30% | 25 to 28% |  |  |  |  | 
F105-protamine (Fab fragment of human anti-HIV gp120 antibody F105, heavy chain fused at its C-terminus to full-length protamine) (from UniProt P04553 1-51) | 30% |  | 30 % of cells | 25 to 28% | 21 % of cells | 40 | 
single chain ErbB2 antibody protamine fusion protein ML39 ScFv-P (from UniProt P04553 8-29) |  |  |  |  |  |  | 32 % of cells
